# Assay results: publication PMC9321131
# Where two headings read alike, the source gives them in different places.
# T1: rPvSPL2 (GST-PvSPL2) (Panicum virgatum, UniProt A0A8T0WHV5 1-470)
# T1 sequence: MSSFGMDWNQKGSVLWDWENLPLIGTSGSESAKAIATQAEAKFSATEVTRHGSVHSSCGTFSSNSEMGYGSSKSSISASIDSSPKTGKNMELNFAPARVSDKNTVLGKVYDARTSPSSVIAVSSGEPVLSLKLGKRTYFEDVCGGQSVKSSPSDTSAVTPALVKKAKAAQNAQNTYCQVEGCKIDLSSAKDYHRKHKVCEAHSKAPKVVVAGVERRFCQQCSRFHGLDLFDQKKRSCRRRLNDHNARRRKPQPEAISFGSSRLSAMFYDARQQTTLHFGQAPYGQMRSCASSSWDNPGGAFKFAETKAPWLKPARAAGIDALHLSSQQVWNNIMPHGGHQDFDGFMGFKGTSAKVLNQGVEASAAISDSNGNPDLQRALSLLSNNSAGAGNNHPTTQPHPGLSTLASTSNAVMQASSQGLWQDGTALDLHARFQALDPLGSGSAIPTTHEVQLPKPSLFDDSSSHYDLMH
# B1: PvLBO promoter probe 1 (site 1) (dsDNA)
# DNA 1: CCCCCCAAACGTACTATTTACTAT
# DNA 2: ATAGTAAATAGTACGTTTGGGGGG
# B2: PvLBO promoter probe 2 (site 2) (dsDNA)
# DNA 1: TACAATATTTGTACTGTCATAATA
# DNA 2: TATTATGACAGTACAAATATTGTA
# Key:
# rPvSPL2 (GST-PvSPL2) [1] = molecular target: T1, rPvSPL2 (GST-PvSPL2); test: EMSA
# rPvSPL2 (GST-PvSPL2) [2] = molecular target: T1, rPvSPL2 (GST-PvSPL2); test: EMSA; remark: listed apart in the source
binder,measurement,setting,value
B1,binding result,rPvSPL2 (GST-PvSPL2) [1],binds
B2,binding result,rPvSPL2 (GST-PvSPL2) [2],binds
